Data from the nanobody polyreactivity screen of Harvey et al. (2022).

Assay: yeast display, Sf9 membrane polyspecificity reagent, FACS + sequencing; frameworks hold sequencing errors
How it was run: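 In a synthetic yeast display library (Saccharomyces cerevisiae BJ5465), nanobody expression was induced with galactose for 36–48 hours. FACS gates were set low and high (top ~1%) using anti-HA fluorescence for expression and streptavidin fluorescence for binding of the Sf9 membrane reagent. Each polyreactivity label is drawn from the gate of origin.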

Sequence	polyreactivity (PSR sort gate)
QVQLVESGGGLVQAGGSLRLSCAASGFTFTANAMGWYRQAPGKERELVAAITRNGGRTYYADSVKGRFTLSRDNAKNNVYLQMNSLKPEDTAVYYCAKPNSQRIHDDYDYWGQGTQVTVSS	high polyreactivity
QVQLVESGGGLVQAGGSLRLSCAASGFTFTAYAMGWYRQAPGKERELVAAISYRGGRTNYAYSVKGRFTISRDNAKNTVYLQMNSLKPEDTAVYYCAARPRISTREMDYWGQGTQVTVSS	high polyreactivity
QVQLVESGGGLVQAGGSLRLSCAASGFTFTDYAKGWYRQAPGKERELVAAITKGGGRTYYADSVKWRFTISRDNAKNSVYLQMNSQKPEDTAVYYCNARYQVPYGYWGQGTQVTVSS	low polyreactivity
QVQLVESGGGLVQAGGSLRLSCAASGFTFTGYAMGWYRQAPGKERELVAAISQSGGSTYADSVKGRFTISRDNAKNTVYLQMNSLKPEDTAVYYCAAVWFLLTEYDYWGQGTQVTVSS	low polyreactivity
QVQLVESGGGLVQAGGSLRLSCAASGFTFTGYAMGWYRQAPGKERELVAAISQSGGSTYADSVKGRFTISRDNAKNTVYLQMNSLKPEDTAVYYCNAATHGPFDYWGQGTQVTVSS	low polyreactivity
QVQLVESGGGLVQAGGSLRLSCAASGFTFTKNAMGWYRQAPGKERELVAAISRGGRTYYADSVKGRFTISRDNAKNTVYLQMNSLKPEDTADYYCAKGYASQILVAPRSQYYYWGQGTQVTVSS	high polyreactivity
QVQLVESGGGLVQAGGSLRLSCAASGFTFTKYDMGWYRQAPGKERELVAVITWSGGSTYYADSVKGRFTISRDNAKNTVYLQMNSLKPEDTAVYYCNDEAPRYTYGRMDYWGQGTQVTVSS	low polyreactivity
QVQLVESGGGLVQAGGSLRLSCAASGFTFTNYAMGWYRQAPGKERELVAAINSSGSTNYADSVKGRFTISRDNAKNTVYLQMNSLKPEDTAVYYCAVDYSYWVHGFWDDYDYWGQGTQVTVSS	low polyreactivity
QVQLVESGGGLVQAGGSLRLSCAASGFTFTPNAMGRYRQAPGKERELVAVISYSGGSTYYADSVKGRFTISRDNAKNTVYLQMNSLKPEDTAVYYCAKRTYSSKYFGFEYWGQGTQVTVSS	high polyreactivity
QVQLVESGGGLVQAGGSLRLSCAASGFTFTQYAMGWYGQAPGKEREFVAAITASGGSTYYADSVKGRFTISRDNAKNTVYLQMNSLKPEDTAVYYCAAKGRPDGKYDYWGQGTQVTVSS	high polyreactivity
QVQLVESGGGLVQAGGSLRLSCAASGFTFTRNAMGWYRQAPGKERELVAAITSSGGRTYYADSVKGRFTISRDNAKNTVYLQMNSLKPEDTAVYYCAVYPRYSLPARDYDYWGQGTQVTVSS	high polyreactivity
QVQLVESGGGLVQAGGSLRLSCAASGFTFTRYAMGWYRQAPGKERELVADITRSGGTTYYADSVKGRFTISRDNAKNTVYLQMNSLKPEDTAVYYCAADTYSHGRYYRMDYWGQGTQVTVSS	high polyreactivity
QVQLVESGGGLVQAGGSLRLSCAASGFTFTSNAMGWYRQAPGKERELVAAITSSGGITYYADSVKGRFTISRDNAKNTVYLQMNSLKPEDTAVYYCAASISSYNSPGYGYWGQGTQVTVSS	low polyreactivity
QVQLVESGGGLVQAGGSLRLSCAASGFTFTSNAMGWYRQAPGKERELVAVISTRGGSTYYADSVKGRFTISRDNAKNTVYLQMNSLKPEDTAVYYCAARQIPNSVLVHYGYWGLGTQVTVSS	high polyreactivity
QVQLVESGGGLVQAGGSLRLSCAASGFTFTSYTMGWYRQAPGKERELVAVISWSGGGTYYADSVKGRFTISRDNAKNTVYLQMNSLKPEDTAVYYCNKAPTNLFGGRYDYWGQGTQVTVSS	low polyreactivity
QVQLVESGGGLVQAGGSLRLSCAASGFTFTTYVMGWYRQAPGKERELVAAISRRGTSTRYADSVKGRFTISRDNAKNTVYLQMNSLKPEDTAVYYCAADRPYSIVPYDYWGQGTQVTVSS	high polyreactivity
QVQLVESGGGLVQAGGSLRLSCAASGFTFTVYAMGWYRQAPGKERELVAVITSGDGTYYADSVKGRFTISRDNAKNTVYLQMHSLKPEDTAVYYCNARRYSSLRYRFAYDYWGQGTQVTESS	low polyreactivity
QVQLVESGGGLVQAGGSLRLSCAASGFTFTWYAMGWYRQAPGKERELVASISRSGGSTYYADSVKGRFTISRDNAKNTVYLQMNSLKPEDTAVYYCAAVSRTRSYDYWGQGTQVTVSS	high polyreactivity
QVQLVESGGGLVQAGGSLRLSCAASGFTFTYNDMGWYIQAPGKEREFVAAISSTGGSTYYADSVKGRFTISRDNAKNTVYLQMNSLKAEDTAVYYCAAEDSWYWDAWFDYWGQGTQVTVSS	low polyreactivity
QVQLVESGGGLVQAGGSLRLSCAASGFTFTYNDMGWYRQAPGKEREFVAAISSTGGSTYYADSVKGRFTISRDNAKNTVYLQMNSLKPEDTAVYYCAAEDSWYWDAWFDYWGQGTQVTVSS	low polyreactivity
QVQLVESGGGLVQAGGSLRLSCAASGFTFTYYALGWYRQAPGKERQLVAAISSRGGRTYYADSVKVRFRISRDNAKNTVYLLMKSLKPEDTAVYYCAARVYKGWPTHYDYLGQGTQVTVSS	high polyreactivity

Sequence	polyreactivity (PSR sort gate)
QVQLVESGGGLVQAGGSLRLSCAASGFTFTYYAMGWYRQAPGKERELVAAISWNGGSTYYADSVKGRFTISRDNAKNTVYLQMNSLKPEDTAVYYCNAYDYQYFYGYEYDYWGQGTQVTVSS	high polyreactivity
QVQLVESGGGLVQAGGSLRLSCAASGFTFTYYAMGWYRQAPGKERELVAAITKSGGSTYYADSVKGRFTISRDNAKNTVYLQMNSLKPEDTAVYYCAADTRYGRERYYWGQGTQVTVSS	high polyreactivity
QVQLVESGGGLVQAGGSLRLSCAASGFTFTYYAMGWYRQAPGKERELVAVITRSGNTYYADSVKGRFTISRDNAKNTVYLQMNSLKPEDTAVYYCATVGQRLHLGYWGQGTQVTVSS	high polyreactivity
QVQLVESGGGLVQAGGSLRLSCAASGFTFVGNAMGWYRQAPGLERELVAAITRGGSSYYADSVKGRFTISRDNAKKTVYLQMNSLKPEDTAVYYCNAELPVHWSWYDYWGQGTQVTVSS	low polyreactivity
QVQLVESGGGLVQAGGSLRLSCAASGFTFVGYAMGWYRQAPGKERELVAAISSSGVSTYYADSVKGRFTISRDNAKNTVYLQMNSLKPEDTAVYYCNRVSVYRSSHLLWGGYWGQGTQVTVSS	low polyreactivity
QVQLVESGGGLVQAGGSLRLSCAASGFTFVINDMGWYRQAPGKERELVADITSGGDKYYADSVKGRFTISRDNAKNTVYLQMISLKPEDTAVYYCARDNERDYYTYPYDYWGQGTQVTVSS	low polyreactivity
QVQLVESGGGLVQAGGSLRLSCAASGFTFVIYAMGWYRQAPGTERELVATITGSGGSTYYADSVKWRITISRDNAKNTVYLQMNSLKPEDTAVYYCAARRRYQRYSRYDYWGLGTQVTVSS	high polyreactivity
QVQLVESGGGLVQAGGSLRLSCAASGFTFVKYAMGWYRQAPGKERELVAVISRRGGSTYYADSVKGRFTISRDNAKNTVYLQMNSLKPEDTAVYYCAAKVALPRTQEWEYGYWGQGTQVTVSS	high polyreactivity
QVQLVESGGGLVQAGGSLRLSCAASGFTFVKYAMGWYRQAPGKVRELVASISSGGSTYYADSVKGRFTISRDNAKNTVYLQMNSLKPEDTAVYYCNKSPGYGRYSRRYDSWGQGTQVTVSS	high polyreactivity
QVQLVESGGGLVQAGGSLRLSCAASGFTFVPYAMGWYRQAPGKEREFVADITSSGTTNYADSVKGRFTISRDNAKNTVYLQMNSLKPEDTAVYYCAADPDSGQVPFDYWGQGTQVTVSS	low polyreactivity
QVQLVESGGGLVQAGGSLRLSCAASGFTFVQYAMGWYRPAPGKERELVARISSSGGSTYYADSVKGRFTISRDNAKNTVYLQMTSLKPEDTAVYYCAARRSHYYYVARFDYWGQGTQVTVSS	high polyreactivity
QVQLVESGGGLVQAGGSLRLSCAASGFTFVQYAMGWYRPAPGKERELVATISKSGGITYYADSVKGRFTISRDTAKNTVYLHMNSVKPEDTAVYYCAAAWYYSSRGFHATWGHDYWGQGTQVTVSS	low polyreactivity
QVQLVESGGGLVQAGGSLRLSCAASGFTFVRNAMGWYRQAPGKERELVAAISDRGGTYYADSVKGRFTISRDNAKNTVYLQMNSLKPEDTAVYYCAAKYWYPYQYSHGSFYYWGQVTQVTVSS	high polyreactivity
QVQLVESGGGLVQAGGSLRLSCAASGFTFVRYAMGWDSQAPGTERELVAAMSRSGGSTYYADSVKGRFTISRDNAKNTVYLQMNSLKPEDTAVYYCAADIKGRTGDAYDYWGQGTQVTVSS	low polyreactivity
QVQLVESGGGLVQAGGSLRLSCAASGFTFVRYAMGWYRQAPGKERELVAAITRSGGSTYYADSVKGRFTISRDNAKNTVYLQMNSLKPEDTAVYYCNARRSRSRYDYWGQGTQVTVSS	high polyreactivity
QVQLVESGGGLVQAGGSLRLSCAASGFTFVRYAMRWYRQAPGTERELVAAISYSGGRTYYADSVKGRFTISRDTAKNTVYLQMNSLKPEDTAVYYCAADAFRGFYWGQGTQVTVSS	high polyreactivity
QVQLVESGGGLVQAGGSLRLSCAASGFTFVSNAMGWYRQAPGKERELVADITSDGSTNYADSVKGRFTISRDNAKNTVYLQMNSLKPEDTAVYYCATDQRSHTWVNQFDYWGQGTQVTVSS	low polyreactivity
QVQLVESGGGLVQAGGSLRLSCAASGFTFVSYAMGWYRQAPGKERELVAAISSRVGSTYYADSVKGRFTISRDNAKNTVYLQMNSLKPEDTAVYYCAASFTDRVTLDYFRSYAFEYWGQGTQVTVSS	low polyreactivity
QVQLVESGGGLVQAGGSLRLSCAASGFTFVSYAMGWYRQATGKERELVAVIDNSDGDTYYADSVKGRFTISRDNAKNTVYLQMNSLKPEDTAVYYCAADAVIEWTDWYSAWWYYYWGQGTQVTVSS	low polyreactivity
QVQLVESGGGLVQAGGSLRLSCAASGFTFVTYAMGWYRQAPGKERELVAAISSSGRTYYADSVKGRFTISRDNAKNTVYLQMNSLKPEDTAVYYCAVQGAWRSFYYWGQGTQVTVSS	high polyreactivity
